Data published in patent US20220288216A1 (STARPHARMA, published 2022).
Blank lines part the entries; values can stand above or below the binder they belong to.

Columns and labels:
[1] = target: T1, HER2 (human epidermal growth factor receptor 2) on cells (human, UniProt P04626 23-1255); experiment: flow cytometry (Cy5), SKOV-3 cells, 3.33 nM, 37 C, 24 h
T1 construct: whole, on cells; One molecule for HER2 on all HER2-positive human cell lines; also called ERBB2; HER2 WT

[2] = target: T1, HER2 (human epidermal growth factor …); experiment: flow cytometry (Cy5), MDA-MB-231/HER2 cells, 3.33 nM, 37 C, 24 h
[3] = target: T1, HER2 (human epidermal growth factor …); experiment: flow cytometry (Cy5), MDA-MB-231/HER2 cells, 0.5 h

- fold fluorescence against compound 36 (untargeted control) [1]: ~16 fold
- fold fluorescence against compound 36 (untargeted control) [2]: ~9 fold
B1: Nanobody-PEG2-TCO-MePhTz-PEG4-PEG24-CO[N(PN)2][Lys]8[(α-NH-Cy5)1(α-NH-Glu-VC-PAB-MMAE)7(ε-NH-COPEG1100)8], Compound 41 (VHH)
VHH: EVQLVESGGSLVQPGGSLRLSCAASGFTFDDYAMSWVRQVPGKGLEWVSSINWSGTHTDYADSVKGRFTISRNNANNTLYLQMNSLKSEDTAVYYCAKNWRDAGTTWFEKSGSAGQGTQVTVSS
modifications: C-terminal unnatural amino acid (# in the printed sequence; p-azido-phenylalanine) clicked to DBCO-PEG12-TCO and through it to the tetrazine G3 lysine dendrimer carrying Cy5, Glu-VC-PAB-MMAE and PEG1100
notes: Anti-HER2 nanobody 2D3 conjugated to a G3 dendrimer; also called compound 41 (targeted); targeted dendrimer

- cellular association value (legend says percent; value exceeds 100, unit unclear) [3]: 157
B2: BHA[Lys]16[((α-NH-COPEG24NH-COPEG4(PhMeTz) TCO-PEG3NH-COPEG24NH-Glu-DBCO/N3-Nanobody)1(α-Lys(α-NHCy5)(ε-NHDFO))1(α-NH2)14(ε-NH-COPEG1000)16], G4, Compound 90 (VHH)
VHH: B1 VHH
modifications: unnatural amino acid (#; p-azido-phenylalanine) clicked to DBCO-Glu-NHPEG24CO-NHPEG3-TCO and through it to the tetrazine G4 BHA-lysine dendrimer carrying Cy5, DFO and PEG1000
notes: Single-nanobody G4 conjugate; also called single 2D3-dendrimer conjugate; MFI Single

- cellular association value (legend says percent; value exceeds 100, unit unclear) [3]: 190
B3: BHA[Lys]4[((α-NH-COPEG24NH-COPEG4(PhMeTz) TCO-PEG3NH-COPEG24NH-Glu-DBCO N3-Nanobody)1(α-Lys(α-NHCy5)(ε-NHDFO))1(α-NH2)2)(ε-NH-COPEG1000)4, G2, Compound 86 (VHH)
VHH: B1 VHH
modifications: unnatural amino acid (#; p-azido-phenylalanine) clicked to DBCO-Glu-NHPEG24CO-NHPEG3-TCO and through it to the tetrazine G2 BHA-lysine dendrimer carrying Cy5, DFO and PEG1000
notes: Single-nanobody G2 conjugate; also called BHA-G2-PEG1000 + NB

- cellular association value (legend says percent; value exceeds 100, unit unclear) [3]: 165
B4: BHA[Lys]32[((α-NH-COPEG24NH-COPEG4(PhMeTz) TCO-PEG3NH-COPEG24NH-Glu-DBCO/N3-Nanobody)1(α-Lys(α-NHCy5)(ε-NHDFO))1(α-NH2)30(ε-NH-COPEG1100)32], G5, Compound 92 (VHH)
VHH: B1 VHH
modifications: unnatural amino acid (#; p-azido-phenylalanine) clicked to DBCO-Glu-NHPEG24CO-NHPEG3-TCO and through it to the tetrazine G5 BHA-lysine dendrimer carrying Cy5, DFO and PEG
notes: Single-nanobody G5 conjugate; also called BHA-G5-PEG1000 + NB

- fold fluorescence against compound 70 (untargeted control) [1]: ~160 fold
- fold fluorescence against compound 70 (untargeted control) [2]: ~340 fold
B5: BHA[Lys]32[((α-NH-COPEG24NH-COPEG4(PhMeTz) TCO-PEG3NH-COPEG24NH-Glu-DBCO/N3-Nanobody)1-4(α-NHCy5)1(α-NH-COPEG9-Val-Ala-PAB-P-Trigger-NMeCO-CTX)22) (α-NH2)5-8 … (VHH)
VHH: B1 VHH
modifications: unnatural amino acid (# in the printed sequence; p-azido-phenylalanine) after the last nanobody residue clicked to DBCO-Glu-NHPEG24CO-NHPEG3-TCO and through it to the tetrazine G5 BHA-lysine dendrimer carrying Cy5, cabazitaxel and PEG1100
notes: 1-4 nanobodies per dendrimer as printed; also called compound 78 (targeted); 78 (2D3, G5, PEG1000, CTX)

- cellular association value (legend says percent; value exceeds 100, unit unclear) [3]: 218
B6: BHA[Lys]8[((α-NH-COPEG24NH-COPEG4(PhMeTz) TCO-PEG3NH-COPEG24NH-Glu-DBCO/N3-Nanobody)1(α-Lys(α-NHCy5)(ε-NHDFO))1(α-NH2)6)(ε-NH-COPEG1000)8], G3, Compound 89 (VHH)
VHH: B1 VHH
modifications: unnatural amino acid (#; p-azido-phenylalanine) clicked to DBCO-Glu-NHPEG24CO-NHPEG3-TCO and through it to the tetrazine G3 BHA-lysine dendrimer carrying Cy5, DFO and PEG1000
notes: Single-nanobody G3 conjugate; also called BHA-G3-PEG1000 + NB
